Data from paper PMC11316045.

What was measured:
[1] = anti-Flag immunofluorescence, also with HSP90B1/DAPI co-staining; settings: glycan lost; control: wild type
[2] = FACS of cell surface PD-L1, H460; settings: glycan lost; control: wild type
[3] = anti-Flag immunofluorescence, H460 and PD-L1 KO cells; settings: glycan lost; control: untreated

**Q.** What does the source list for PD-L1: N35Q?
**A.** localisation_or_trafficking [1]: no change; localisation_or_trafficking [2]: no change

**Q.** With PD-L1: N192Q as the substance, how does the localisation_or_trafficking [1] read?
**A.** The localisation_or_trafficking was “no change”.

**Q.** And the localisation_or_trafficking [2]?
**A.** The localisation_or_trafficking was “no change”.

**Q.** With PD-L1: N200Q as the substance, how does the localisation_or_trafficking [1] read?
**A.** The localisation_or_trafficking was “no change”.

**Q.** And the localisation_or_trafficking [2]?
**A.** Its localisation_or_trafficking is “no change”.

**Q.** Which results are given for PD-L1: N219Q?
**A.** localisation_or_trafficking [1]: changes; localisation_or_trafficking [2]: decreases

**Q.** With PD-L1: tunicamycin (5μg/ml) as the substance, how does the localisation_or_trafficking [3] read?
**A.** Its localisation_or_trafficking is “changes”.
